Holding throughout (details): both partners purified
For test [1], the target named is T1, TAF3 PHD domain (for ITC).
T1 chain: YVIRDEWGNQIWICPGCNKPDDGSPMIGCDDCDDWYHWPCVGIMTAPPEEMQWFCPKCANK
The test is described as follows: ITC; 350–600 μM H3K4me3 or H3C4me3 peptide titrated to 25–40 μM protein (JMJD2A–H3C4me3: 3 mM peptide to 200 μM JMJD2A); 19 injections; Microcal Auto-iTC200; one set of sites model; 5–7 repeats. In general terms: Isothermal titration calorimetry measures the heat released or taken up as one component is titrated into another.

The next test addresses T2, BPTF PHD zinc finger.
T2 chain: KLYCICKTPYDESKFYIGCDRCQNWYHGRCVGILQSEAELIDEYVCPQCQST
The test is described as above.

In test [2] the target is T3, JARID1A PHD3 domain (for ITC).
T3 construct: JARID1A (KDM5A), PHD3 domain; cleavage of the tag is told only for JMJD2A, SGF29 and TAF3; also called PHD zinc finger of JARID1A; source: E. coli Rosetta BL21 DE3 pLysS, purified (Ni-NTA or glutathione sepharose beads, Superdex 75)
The description is as above.

In test [3] the target is T4, SGF29 tandem tudor domain (for ITC).
T4 construct: SGF29, tandem tudor domain; the crystallisation construct is residues 115-293 of human SGF29; source: E. coli Rosetta BL21 DE3 pLysS, purified (Ni-NTA, TEV protease, Superdex 75)
Described as above.

The target in the next test is T5, JMJD2A tudor domains.
T5 construct: JMJD2A (KDM4A), tudor domains; source: E. coli Rosetta BL21 DE3 pLysS, purified (Ni-NTA, TEV protease, Superdex 75)
T5 sequence (O75164 whole entry, species assumed, looked up): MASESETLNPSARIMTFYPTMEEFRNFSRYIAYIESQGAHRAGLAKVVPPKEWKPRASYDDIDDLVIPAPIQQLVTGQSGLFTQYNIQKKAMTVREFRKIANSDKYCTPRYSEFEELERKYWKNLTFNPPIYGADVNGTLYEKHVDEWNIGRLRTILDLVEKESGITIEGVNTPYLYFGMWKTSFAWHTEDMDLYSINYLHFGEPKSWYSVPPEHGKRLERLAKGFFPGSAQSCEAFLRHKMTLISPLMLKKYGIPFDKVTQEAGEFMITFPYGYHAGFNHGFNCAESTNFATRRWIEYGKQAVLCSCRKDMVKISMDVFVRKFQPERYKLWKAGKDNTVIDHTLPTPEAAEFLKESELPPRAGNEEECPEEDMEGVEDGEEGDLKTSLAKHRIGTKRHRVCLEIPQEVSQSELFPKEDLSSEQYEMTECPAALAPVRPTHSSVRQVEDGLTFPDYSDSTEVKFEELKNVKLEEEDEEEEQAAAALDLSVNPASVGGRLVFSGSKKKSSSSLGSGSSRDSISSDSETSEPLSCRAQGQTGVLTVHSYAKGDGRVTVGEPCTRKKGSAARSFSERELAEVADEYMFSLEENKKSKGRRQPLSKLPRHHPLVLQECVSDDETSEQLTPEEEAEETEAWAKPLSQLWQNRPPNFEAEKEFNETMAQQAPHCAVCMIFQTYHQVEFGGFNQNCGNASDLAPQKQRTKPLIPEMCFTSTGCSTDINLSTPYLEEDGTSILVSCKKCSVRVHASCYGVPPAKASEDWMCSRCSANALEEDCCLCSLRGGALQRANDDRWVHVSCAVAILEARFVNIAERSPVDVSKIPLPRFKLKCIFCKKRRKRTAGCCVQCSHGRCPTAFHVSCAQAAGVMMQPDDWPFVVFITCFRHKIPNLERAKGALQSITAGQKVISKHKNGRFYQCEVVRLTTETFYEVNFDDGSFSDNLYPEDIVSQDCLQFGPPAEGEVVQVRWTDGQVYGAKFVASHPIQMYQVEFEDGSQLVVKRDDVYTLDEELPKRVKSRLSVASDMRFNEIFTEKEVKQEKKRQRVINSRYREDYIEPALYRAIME
Described as above.

The target of test [4] is T1, TAF3 PHD domain (for ITC). Put plainly: ITC; H3G4 (5 mM) titrated to JARID1A (330 μM), H3G4 (3 mM) titrated to TAF3 (200 μM); 19 injections; Microcal Auto-iTC200; one set of sites model.

Ends that are not written are not given here. Me3 = trimethyllysine (Kme3)

T4 sequence (Q96ES7 whole entry, the tested form may be a part): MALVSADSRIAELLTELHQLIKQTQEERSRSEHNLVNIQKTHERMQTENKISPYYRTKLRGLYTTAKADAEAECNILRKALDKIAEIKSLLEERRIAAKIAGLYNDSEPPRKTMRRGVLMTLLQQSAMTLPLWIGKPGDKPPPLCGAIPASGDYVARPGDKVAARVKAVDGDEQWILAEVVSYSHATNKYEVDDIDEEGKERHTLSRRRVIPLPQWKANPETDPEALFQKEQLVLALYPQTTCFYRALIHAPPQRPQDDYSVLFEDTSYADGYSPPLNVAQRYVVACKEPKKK

B1: 10-mer H3C4me3 histone peptide (peptide)
chain: ARTXQTARKS
modifications: Cme3 (neutral carba analogue of trimethyllysine, tert-butyl in place of trimethylammonium) at position 4; carboxylic acid at the C terminus
On to B1, for which the Kd (commonly the constant that tells how readily two partners part at equilibrium) in test [1] is 790 nM; with BPTF PHD zinc finger, 760 nM; in test [2], 340 nM; in test [3] it was 1400 nM; with JMJD2A tudor domains, 16000 nM. Moreover, the dH in test [1] was -5.2 ± 0.1 kcal/mol; in the test with BPTF PHD zinc finger, -10 ± 0.2 kcal/mol; in test [2] it was -7.4 ± 0.1 kcal/mol; in test [3], -7.9 ± 0.1 kcal/mol; in the test with JMJD2A tudor domains, -8.1 ± 0.1 kcal/mol.

B2: 10-mer H3G4 histone peptide (peptide)
peptide: ARTGQTARKS-OH
notes: source: synthetic peptide (solid-phase synthesis, Fmoc chemistry, preparative HPLC)
Turning to B2, in test [4], the Kd is 36000 nM and the dH was -2.5 kcal/mol.

B3: 10-mer H3K4me3 histone peptide (peptide)
peptide: ARTK(Me3)QTARKS-OH
notes: histone H3, residues 1-10, with Kme3 at the fourth position; Peptides appear as TFA salts; also called H3(1-10)K4me3; source: synthetic peptide (solid-phase synthesis, Fmoc chemistry, preparative HPLC)
Consider B3, for which the Kd amounted to 24 nM in test [1] and 490 nM with BPTF PHD zinc finger. The values for the dH (in test [1]; in the test with BPTF PHD zinc finger) were -10.9 ± 0.1 kcal/mol and -13.1 ± 0.1 kcal/mol, respectively.
